# Laboratory results as given in paper PMC4445678 (Structure (London, England : 1993), 2010).
# Like-named read-outs stand apart in the source and are kept apart here.
# T1: C-RING1B 223–333 N306D (human, UniProt Q99496 223-333, N306D)
# T1 sequence (looked up): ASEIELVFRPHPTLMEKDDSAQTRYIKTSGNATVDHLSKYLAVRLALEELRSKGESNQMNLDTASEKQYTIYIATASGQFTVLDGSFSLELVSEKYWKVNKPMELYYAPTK
# T2: C-RING1B (C-terminal domain of RING1B), wild-type (human, UniProt Q99496 222-336)
# T2 sequence (looked up): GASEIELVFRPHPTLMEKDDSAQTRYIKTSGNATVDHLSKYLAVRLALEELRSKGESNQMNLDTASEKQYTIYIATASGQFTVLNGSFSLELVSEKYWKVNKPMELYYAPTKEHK
# B1: RYBP 145–198 (domain or fragment, human, UniProt Q8N488 145-198, looked up)
# chain: RPRLKNVDRSTAQQLAVTVGNVTVIITDFKEKTRSSSTSSSTVTSSAGSEQQNQ
# B2: MBP-RYBP 145–198 (domain or fragment, human, UniProt Q8N488 145-198, looked up)
# chain: RPRLKNVDRSTAQQLAVTVGNVTVIITDFKEKTRSSSTSSSTVTSSAGSEQQNQ
# Assays:
# CBX7 cbox (Homo sapiens) = CBX7 cbox (Homo sapiens) (UniProt O95931); conditions: cited from earlier work
# C-RING1B 223–333 N306D [1] = biological target: T1, C-RING1B 223–333 N306D; test: crystal structure
# [2] = biological target: T2, C-RING1B (C-terminal domain of RING1B), …; test: AUC
# [3] = biological target: T2, C-RING1B (C-terminal domain of RING1B), …; test: SPR
# C-RING1B 223–333 N306D [4] = biological target: T1, C-RING1B 223–333 N306D; test: crystal structure; remark: listed apart in the source
molecule,measurement,setting,value
RING1B C-RING1B (from UniProt Q99496),Kd,CBX7 cbox (Homo sapiens),9.2 nM
"EVTVTDITANSITVTFREAQAAEGFFRDRS (domain or fragment, human, UniProt O95931 219-248, looked up) [cbx7 219–248]",binding result,C-RING1B 223–333 N306D [1],binds
B1,stoichiometry N,[2],1
B2,Kd,[3],100 nM
"RPRLKNVDRSTAQQLAVTVGNVTVIITDFKEKTRS (domain or fragment, human, UniProt Q8N488 145-179, looked up) [MBP-RYBP 145–179]",Kd,[3],90 nM
"RPRLKNVDRSTAQQLAVTVGNVTVIITDFKEKTRS (domain or fragment, human, UniProt Q8N488 145-179, looked up) [RYBP 145–179]",binding result,C-RING1B 223–333 N306D [4],binds
